Drawing on the Immune Epitope Database (IEDB), this text covers Kd and IC50 for 22 sequences.

For one test, the target named is HLA-A*32:01. The test can be described thus: IEDB peptide-MHC binding, purified MHC/competitive/radioactivity; filed as Kd, often an IC50 or EC50 that approximates it; ≥ and ≤ were set here for values at or beyond the usual limits of such assays.
A further test has as its target HLA-B*15:03. Described as above.
A further test concerns the target HLA-B*08:01. Described as above.
For another test, the target named is HLA-B*15:01. The description is as above.
The next test concerns the target HLA-A*68:02. The test is described as above.
For another test, the target named is HLA-A*02:01. The description is as above.
The target of the next test is HLA-A*02:03. Described as above.
In the next test the target is HLA-A*02:02. Described as above.
A further test addresses HLA-A*02:06. The description is as above.
Another test deals with HLA-A*26:01. Described as above.
The next test addresses HLA-A*33:01. Described as above. To be noted: source organism: Vaccinia virus WR.
The target in the next test is HLA-A*31:01. The test is described as above. To be noted: source organism: Vaccinia virus WR.
The next test addresses HLA-A*68:01. Described as above. The note with it: source organism: Vaccinia virus WR.
A further test concerns the target HLA-A*11:01. The test can be described thus: IEDB peptide-MHC binding, purified MHC/competitive/fluorescence; ≥ and ≤ were set here for values at or beyond the usual limits of such assays.
The next test addresses HLA-A*03:01. Described as above.
The target in a further test is HLA-B*57:01. The test is described as follows: IEDB peptide-MHC binding, purified MHC/competitive/radioactivity; filed as Kd, often an IC50 or EC50 that approximates it; ≥ and ≤ were set here for values at or beyond the usual limits of such assays.
The target of a further test is HLA-A*30:01. Described as above.
Another test addresses HLA-A*30:02. The test is described as above. The note with it: source organism: Dengue virus 3 Martinique/1243/1999.
The target in a further test is HLA-A*24:02. The test can be described thus: IEDB peptide-MHC binding, purified MHC/competitive/fluorescence; ≥ and ≤ were set here for values at or beyond the usual limits of such assays. The note with it: source organism: Zaire ebolavirus.
Where [1] appears, read: source organism: Vaccinia virus Copenhagen.
[2] abbreviates: source organism: Vaccinia virus WR.
[3] abbreviates: source organism: Trypanosoma cruzi.
The mark [4] stands for this setting: source organism: Dengue virus 4 Philippines/H241/1956.
[5] abbreviates: source organism: Human immunodeficiency virus type 1 (CLONE 12).
The mark [6] stands for this setting: source organism: Dengue virus 3 Martinique/1243/1999.
Where [7] appears, read: source organism: Lassa virus GA391.
[8] abbreviates: source organism: Lymphocytic choriomeningitis virus (strain Armstrong) (clone 53b).
Setting [9] is: source organism: Zaire ebolavirus.

As a reminder, the Kd is the free concentration of one partner at which half of the binding sites on the other are occupied at equilibrium, for simple one-to-one binding. SLNSIFNTF: the Kd with HLA-A*32:01 (setting [1]) was 13.8 nM; with HLA-B*15:03 (setting [1]) it was 209 nM; in the test with HLA-B*08:01 (setting [1]), at least 30600 nM; in the test with HLA-B*15:01 (setting [1]), 2.22 nM.
Consider RKVKSYNYM, for which the Kd with HLA-B*15:03 (setting [2]) was 2.58 nM.
Take ELDSNLYRI: the equilibrium dissociation constant (Kd) with HLA-A*68:02 (source organism: Homo sapiens) is 916 nM.
With SLSHDFTLV, the Kd with HLA-A*02:01 (setting [3]) is 12.6 nM; with HLA-A*02:03 (setting [3]), 1.65 nM; with HLA-A*02:02 (setting [3]), 0.305 nM; with HLA-A*68:02 (setting [3]) it was 600 nM; with HLA-A*02:06 (setting [3]), 7.74 nM.
On to IQYDRRSFF, for which, in the test with HLA-B*15:03 (setting [1]), the dissociation constant Kd was found to be 0.154 nM.
For TTANWLWAL, the Kd was 3080 nM with HLA-A*26:01 (setting [4]), 6.36 nM in the test with HLA-A*68:02 (setting [4]) and 5.93 nM with HLA-A*02:06 (setting [4]).
In general, IC50 refers to the concentration needed to halve the response being measured. A lower IC50 goes with greater potency. With KSISKSNAK, the values for the Kd with HLA-A*33:01, with HLA-A*31:01 and with HLA-A*68:01 were at least 33900 nM, 0.454 nM and 101 nM, respectively. Moreover, the results for the IC50 in the test with HLA-A*11:01 (setting [1]) and with HLA-A*03:01 (setting [1]) were 1680 nM and 3020 nM, respectively.
As for ILMGLDKGW, the dissociation constant Kd with HLA-B*57:01 (source organism: Dengue virus 1 Brazil/97-11/1997) stood at 49 nM.
Turning to PLTFGWCYKL, the Kd with HLA-A*02:01 (setting [5]) was 6850 nM; in the test with HLA-A*02:03 (setting [5]), 19300 nM; with HLA-A*02:02 (setting [5]) it was at least 29400 nM; with HLA-A*68:02 (setting [5]), at least 20100 nM; with HLA-A*02:06 (setting [5]) it was 13200 nM.
For the sequence MAVGLVSILA, the Kd with HLA-A*68:02 (setting [6]) was found to be 3.23 nM.
As for RAYMATTIL, the Kd with HLA-B*15:03 (setting [2]) is 17.5 nM.
With IVYSLVTTI, the Kd with HLA-A*32:01 (setting [2]) was 3.6 nM; in the test with HLA-A*30:01 (setting [2]), 16 nM; in the test with HLA-B*15:03 (setting [2]) it was 1860 nM; with HLA-B*08:01 (setting [2]), 13600 nM; with HLA-B*15:01 (setting [2]), 542 nM.
With LLGLWGFAAQ, the dissociation constant Kd was 1100 nM with HLA-A*02:01 (setting [3]); 394 nM with HLA-A*02:03 (setting [3]); 1240 nM in the test with HLA-A*02:02 (setting [3]); 1820 nM with HLA-A*68:02 (setting [3]); 462 nM with HLA-A*02:06 (setting [3]).
Take ILAADLEKL: the Kd in the test with HLA-A*02:03 (setting [7]) came to 20 nM; in the test with HLA-A*02:02 (setting [7]), 32.3 nM; with HLA-A*68:02 (setting [7]), 4290 nM; with HLA-A*02:06 (setting [7]), 195 nM.
Regarding ETPNLAERV, the Kd in the test with HLA-A*68:02 (source organism: Dengue virus 1 Singapore/S275/1990) worked out at 24.8 nM.
Take ALPHIIDEV: the dissociation constant Kd with HLA-A*02:03 (setting [8]) was found to be 0.34 nM; in the test with HLA-A*02:02 (setting [8]), 13 nM; with HLA-A*68:02 (setting [8]), 179 nM; with HLA-A*02:06 (setting [8]) it was 66 nM.
As for HSFEEMYRH, the IC50 was found to be 3290 nM with HLA-A*11:01 (setting [9]) and 49400 nM with HLA-A*03:01 (setting [9]).
IAIGIITLY: the Kd with HLA-A*26:01 (setting [6]) amounted to 13 nM; in the test with HLA-B*57:01 (setting [6]), 3.62 nM; in the test with HLA-A*30:02, 2680 nM.
With LTSRDGEPRM, the values for the dissociation constant (Kd) with HLA-A*30:01 (setting [6]) and in the test with HLA-B*57:01 (setting [6]) were 10900 nM and 1320 nM, respectively.
As to DQEKKILMN, the half-inhibitory concentration (IC50) is at least 193000 nM in the test with HLA-A*11:01 (setting [9]), at least 303000 nM with HLA-A*24:02 and at least 386000 nM with HLA-A*03:01 (setting [9]).
For the sequence FTQQALSSF, the Kd with HLA-B*15:03 (setting [2]) was 6.43 nM.
As to VLQRNCAAYL, the Kd is 95.7 nM with HLA-A*02:01 (source organism: Homo sapiens), 94.8 nM with HLA-A*02:03 (source organism: Homo sapiens), 18 nM with HLA-A*02:02 (source organism: Homo sapiens) and at least 60000 nM in the test with HLA-A*68:02 (source organism: Homo sapiens).
